# Laboratory results from the nanobody polyreactivity screen of Harvey et al. (2022).
# Test: yeast display, Sf9 membrane polyspecificity reagent, FACS + sequencing; frameworks hold sequencing errors
# Outline: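 Galactose induction of a Saccharomyces cerevisiae BJ5465 synthetic nanobody display library ran 36–48 hours. The cells were then stained for 1 hour at 4 °C with 10% biotinylated, detergent-solubilized Sf9 membrane reagent, pulled down on streptavidin microbeads and FACS-sorted into low and high (top ~1%) gates on expression and reagent-binding fluorescence. Labels for polyreactivity follow the gate of origin.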
row,Sequence,polyreactivity (PSR sort gate)
1,QEQLVESGGGLVQAGGSLRLSCGASRSIVHYYAMGWYRQAPGKEREFVAAIAWGGDSTYYADSVKGRFTNSRDNANNTVYFQMYSLKPEDTAVYYCAADGPGGIGNGAGYDYWGQGTEVTVSS,low polyreactivity
2,QVQLVESGGGLVQAGGTLRISCAASGSTAYVMGWYRQAPGKEMELVAAISKSGGSTYYADSVKGRFTISRDNAKNTVYLQMNSLKPEDTAVYYCAALYPTTTAYRYGYWGQGTQVTVSS,high polyreactivity
3,QVQLVESGVGLVQAGGSLRLSCAASGFTFYSNAMGWYRQAPGKERELVAAITGRVGRTYYADSVKGRFTISRDNAKNTVYLLMNSLKPEDTAVYYCAAVYQVSTWGGRYYFRQGYDYWGQGTQVTVSS,high polyreactivity
4,QVQLVESGGGLVQAGGSLRLSCAASGSTFWYYAMGWYRQAPGKERELVASITYSGGSTYYADSVKGRFTISRDNAKNTVYLQMNSLKPEDSAVYYCAAEGYYSNYHYWGQGTQVTVSS,low polyreactivity
5,QVQLVESGGGLVQAGGSLRLSCAASGRTFIVNAMGWYRQAPGKVRELVAAITKGARTYYADSVKGRFTISRDNAKNTVYLQRNSLKPEDTAVYYCNATRLGGNGTRHYYWGQGTQVTVSS,high polyreactivity
6,QVQLVESGGGLVQAGGSLRLSCSASGSIFSGNTMGWYRQAPGKERELVAAISGGGSTNYADSVKGRFTISRDNAKNTVYLQMNSLKPEDTAVYYCAKDLSLGASRMDYWGQGTQVTVSS,low polyreactivity
7,QVQLVESGGGLVQAGGSLRLSCAASGRNFYAYAMGWYRQAPGKERELVAGITYSGSSTYYADSVKGRFTISRDNAKNTVYLQMNSLKPEDTAVYYCAADLTRVLRYNYWGQGTQVTVSS,low polyreactivity
8,QVQLVESGGGIVQAGGSLRLSCAASGSIYGYAMGWYRQAPGKERELVAAISGRGGRTYYADSVKGRFTISRDNAKNTVYLQMNSLKPEDTAVYYCNVQWRYPYHYTVDYWGQGTQVTVSS,high polyreactivity
9,QVQLVESGGGLVQAGGSLRLSCAASGCIFASYPMGWYRPAPGTERELVAAISRAGSTYYADSVKGRFTISRDNAKNTDYLQMNSLKPEDTAVYYCNADFNWGYNYWGQGTQVTGSS,high polyreactivity
10,QVQLVESGVGLVQAGGSLRLSCADSGLILSKYAKVWYRPAPGKEREFVAAITQTGSRTYYADSVKGRFTSSRDNAKNTVYLQMNSLKPEDTAVYYCNAVNYRSSRDSGYWGQGTQVTVSS,high polyreactivity
11,QVQLVESGGGLVQAGGSLRLSCAASGSIFYLYAMGWYRQAPGKERELVAAITSIGGSTYADSVKGRFTISRDNAKNTVYLQMYSLKPEDTAVYYCNTDEYPLTVQVQYYYWGQGTQVTVSS,low polyreactivity
12,QVQLVESGGGLDQAGGSLRLICAASGRTFYYNVMGWYRQAPGKERELVAAISTGVSTNYADSVKGRFTISRDNAKNTVYLQMNSQKPEDTAVYYCNSRSYRWYRPVYRYDYWGQGTQVTVSS,high polyreactivity
13,QVQLVESGGGLVQAGGSLRLSCAASGRIVRSYTMGWYRLEPGKERELVSDITSGTSTSYADSVKGRFTISRDNAKNTVYLQINSLKPEDTAVYYCNADVSNYFWNWPYQGMDYWGQGTQVTVSS,low polyreactivity
14,QVQLVESGGGLVQAGGTLRLSCAASGGTFATYAMGWCRQGPGKERELVAAITQSGGTTYYADSVKRRFTISRDNANNTVYLQMNSLKPEDTAVYYCNAEASQAVYYAYEYWGQGTQVTVSS,low polyreactivity
15,QVQLVESGGGLVQAGGSLRLSCAASGFIFVGNAMGWYRQAPGKERELVAAISSGTSTNYADSVKGRFTISRDNAKNTVYLQMNSLKPEDTAVYYCNAEVPATNEYTKRMDYWGQGTQVTVSS,low polyreactivity
16,QVQLVESGGGLVQAGGSLRLSCAASGHTFYYKALGWYTQAPGKEREFVATITESGTSTYYADSVKGRCTLSRDNAKNTVYLQMKSLKPEDTAGYYCAAQYWYVGGIALYDYWGQGTQVTVSS,low polyreactivity
17,QVQLVESGGGLVQAGGSLRLSCAATGRTFGFNDMGWYRKATGKEREFVAAINSGGNTYYADSVKGRFTISRDNAKNTVYLQMNSLKPEDTAVYECAVKRASRYYVRKEYYYWGQGTQVTVSS,high polyreactivity
18,QVQLVESGGGLDQAGGSLRLSCAASGIIFVENAMGWYRQAPGKERELVASGDSTYADSVKGRFTISRDNAKNTVYLKMNSRKPEDTAVYYCAAEVYVYHPFVHYDYWGQGTQVTVSS,low polyreactivity
19,QVQLVESGGGLVQAGGSLRLSCAASGRIFSYYAMGWYRQAPGKERELVAAISRGGTTNYADSVKGRFTISRDNAKNTVYLQMNSLKPEDTAVYYCNRDFHLIHLSSARLDYWGQGTQVTVSS,low polyreactivity
20,QDQLVESGGGLVQAGGSLRLSCAPSGRTFGGYSMGWYRQAPGKERELVASNTSGGSTYYADSVKGRFTISRDNAKNTVYLQMNSLKPEDTAVYYCAAVTYFETSSRAIPSNDYWGQGTQVTVSS,low polyreactivity
21,QVQLVESGGGLVQAGGSLRLSCAASVRIFYRYGMGLYRQAPGKERELVASITRGGSTYYADSVKGRFTISRDNAKNTVYLQMNSLKPEDTAVYYCATKSSAGYDYWGQGTQVTVSS,low polyreactivity
22,QVQLVESGGGLVQAGGSLRLSCAASGRTFRIYAMGWYRQAPGKERELVAAISARGGSTYYADSVKGRFTISRDNAKNTVYLQMNSLKPEDTAVYYCAAEKTRRVDYWGQGTQVTVSS,high polyreactivity

row,Sequence,polyreactivity (PSR sort gate)
1,QVQLVESGGGLVQAGGSLRLSCAASGRIFHNYAMGWYRQAPGKERELVAAISSSGGRTTYADSVKGRFTISRDYAKNTVYLQMNSLKPEDTAVDYCAKRYPHIGDYWGEGTQVTVSS,high polyreactivity
2,QVQLVESGGGVVQAGGSLRLSCAASGSNFDRNAMGWYRQAPGKERELVAAISRSGGSTNYADSVKGRFTISRDNAKNTFYLQMNSLKPEVTAVYYCAAVRTHWFGQGWAVYWFEYWGQGTQVTVSS,low polyreactivity
3,QVQLVESGGGLVHAGGSLRLSCAASGRTFRYYTMGWYRQAPGKEREFVAAISSTGGTYYADSVKGRFTISRDNAKNTVYLQMNSLKPEDTAVYYCAATFIQVVVNVQLYDYDYWGQGTQVTVSS,low polyreactivity
4,QVQLVESGGGLVQAGGSLRLSCAASGSTFGAYAMGWYRQAPGKERELVAAISSSDGSTYYADSVKGRFTISRDTAKNTVYLQMNSLKPEDTAVYYCAAEYYSAVYIDEYWYDYWGQGTQVTVSS,high polyreactivity
5,QVQLVESGGGLVQAGGSLRISCAASGRIFRYYAMGWYRQAPGKERELVAAISNSGGRTYYADSVKRRFTISRDNAKNSVYLQMNSLKPEDTAVYYCKKAHSYRGVSDSDMGYWGQGTEVTVSS,high polyreactivity
6,QVQLVESGGGLVQAGGSLRLSCAASGRIFRVYAMGWYRQAPGKERELVAAITRGGSTYYADSVKGRFTISRDNAKNTVYLQMNSLKPEDTAVYYCAARTWHRYDYWGQGTQVTVSS,high polyreactivity
7,QVQLVESGGGLVQAGGSLRLSCAASGSTFESNAMGWYRQAPGKERELVAAISYIDTSTYYADSVKGRFTISRDNAKNTVYLQMNSLKPEDTAVYYCATDVDWAYGYQYEYWGQGTQVTVSS,low polyreactivity
8,QVQLVESGGGLVQAGGSLRLSCAASGRTLASNAMGWYRQAPGKERELVAAINRGGSTYYADSVKGRFTISRDNAKNTVYLQMNSLKPEETAVYYCAVDRYRYPFDYWGQGTQVTVSS,low polyreactivity
9,QVQLVESGGGLVQAGGSLRLSCAASGSIFLYNAMGWYRQAPGKERELVAAISKSGGSTYYADSVKGRFTISRDNAKNTVYLQMNSLIPEDTAVYYCAAGYCRRIRYGSEYDYWGQGTQVTVSS,low polyreactivity
10,QVQLVESGGGLVQAGGSLRLSCAASGFIFVKNAMGWYRQAPGKERELVAVISTRGGRTYYADSVKGRFTISRDNAKNTVYLQMNSLKPEDTAVYYCAALYWYSRSSWDYDYWGQGTQVTVSS,high polyreactivity
11,QVQLVESGGGLVQAGGSLRLAVLPPDLPSTLNDMGWYRQAPGKERELVAAITRGGSTNYADSVKGRFTLSRDNAKNTVYLQMNSLKPEDTAVYYCAAPYAGWRDGGDYWGQGTQVTVSS,low polyreactivity
12,QVQLVESGGGLVQAGGSLRLSCAASGSIFYLNAMGWYRQAPGKERDLVAAIRWSGGSTRYADSVKGRCTISRDNAKNTVYLQMNSLKPEDTAVYYCAKYNPVLVYHWWYYYWGQGTQVTVSS,high polyreactivity
13,QVQLVESGGGLVQAGGSLRLSCAASGSTFTRYAMGWYRQEPGKERELVAAITRRGVSTYYSDSVKGRFTISLDNAKNTVYLQMNSLKPEDTAVYYCNADVEHYSTLSEYWGQGTQVTVSS,high polyreactivity
14,QVQLVESGGGLVQAGGSLRLSCAASGSIFSYYAMGWYRQSPGNERELVAAITWSGGSTNYADSVKGRFTISRDNAKNTVYLQMTSLKPEDTAVYYCAADYWAWGKNEYDYWGQGTQVTVSS,low polyreactivity
15,QVQLVESGGGLVQAGGILRLSCAASGRIFKDNAMGWYRLAPGKERELVATIDSGGDTNYADSVKGRFTISRDNAKNTVYLQMNSLKPEDTAVYYSNTEGFLSAVYAFGYWGQGTQVTVSS,low polyreactivity
16,QVQLVESGGGLVQAGGSLRLSCAASGRTSEFNAMGWYRQAPGKERELVAAITDGGNTNYADSVKGRFTISRDNAKNTVYLQMNSLKPEDTAVYYCAAERYTWWGFDYDYWGQGTQVTVSS,high polyreactivity
17,QVHLVESGGGLVKAGGSLRLSCAASGRTFYKYAKGWYRQAPGKEREFVADISSRGGSTYYEDSVKGRFTISRDNAKNTLYLQMNSLKPEDTAVYYCNSRRNSVRYNYWGQGTQVTVSS,high polyreactivity
18,QVQLVESGGGLVQAGGSLRLSCAASGSTFAYYAMGWYRQAPGKEREMVAAISSGGSTYYADSVKGRFTISRDNAKNTVYLQMNSLKPEDTAVYYCNAEVPGHYFDGWYFYDFDYWGQGTQVTVSS,low polyreactivity
19,QVQLVESGGGLVQAGGSLRLSCAASGSTFNLYAMGWYRQAPGKERELVAAISGNGDRTYYADSVKGRFTISRDNAKNTVYLQMNSLKPEDTAVYYCAAKYYGWGQGTQVTVSS,high polyreactivity
20,QVQLVESGGGLVQAGGSLRLSCAAYGSNFTSNAMGWYRQAPGKERELVAVITIGGSTNYADSVKGRFTISRDNAKNTVYLQMNSLKPEDTAVYYCAADDDYSRILQGDQSDDYWGQGSQVTVSS,low polyreactivity
21,QVQLVESGGGLVQAGGSLRLSCAASGSIFSRNAMGWYRQAPGTERELVAAITDSTGTTYYADSVKGRFTISRDNAKNTVYLQMNSLKPEDTAVYYCNAVGVPQGNFYVRGDDYWGQGTQVTVSS,low polyreactivity
